# Measured values reported in patent US20170298109A1 (SAPPORO MEDICAL UNIVERSITY, published 2017).
# Biological target: HLA-A*24:02 with β2-microglobulin (human)
# Assay: HLA tetramer reagent made of the RMM peptide and the HLA type, staining of induced CTLs, flow cytometry
row,Binder,binding result
1,RMMLVSAWL (synthetic 9-mer) [RMM peptide],binds

# Biological target: T1, HLA-A*02:01 with β2-microglobulin (human)
# T1 construct: Soluble recombinant HLA used in the folding test and in tetramer reagents; also called HLA-A2
# Assay: as above
row,Binder,binding result
1,RMMLVSAWL (synthetic 9-mer) [RMM peptide],binds

# Biological target: T2, HLA-A*11:01 with β2-microglobulin (human)
# T2 construct: Soluble recombinant HLA used in the folding test and in tetramer reagents
# Assay: folding test: HLA-monomer formation after 1, 3 and 7 days, gel filtration
row,Binder,binding result
1,CSYASRDTYK (synthetic 10-mer) [CSY peptide],binds
2,NTHTGTRPYK (synthetic 10-mer) [NTH peptide],binds
3,ASGKGRRTRK (synthetic 10-mer) [ASG peptide],binds
4,AAAEEASTTK (synthetic 10-mer) [AAA peptide],binds
5,TVLTLKASFK (synthetic 10-mer) [TVL peptide],binds
6,SVLSEQFTK (synthetic 9-mer) [SVL peptide],binds
7,KQLLNAHFRK (synthetic 10-mer) [KQL peptide],binds
8,TVYKCSKCGK (synthetic 10-mer) [TVY peptide],binds
9,KLLFIGTIK (synthetic 9-mer) [KLLF peptide],binds
10,GLIPTVLTLK (synthetic 10-mer) [GLI peptide],binds
11,RMSSFNRHMK (synthetic 10-mer) [RMS peptide],binds
12,GTMKIHILQK (synthetic 10-mer) [GTM peptide],binds

# Biological target: T1, HLA-A*02:01 with β2-microglobulin
# Assay: folding test: HLA-monomer formation from HLA, β2-microglobulin and peptide, gel filtration
row,Binder,binding result
1,MAATEISVL (synthetic 9-mer) [MAA peptide],no binding (tested: 30 µM peptide)

# Biological target: T1, HLA-A*02:01 with β2-microglobulin
# Assay: folding test: HLA-monomer formation, gel filtration
row,Binder,binding result
1,HALEENVMV (synthetic 9-mer) [HAL peptide],binds
2,ILQKHGENV (synthetic 9-mer) [ILQ peptide],binds
3,KLAVSLAET (synthetic 9-mer) [KLA peptide],binds
4,ALEENVMVA (synthetic 9-mer) [ALE peptide],binds
5,SVLEEEVEL (synthetic 9-mer) [SVLE peptide],binds
6,VLTVSNSNV (synthetic 9-mer) [VLT peptide],binds
7,VLSEQFTKI (synthetic 9-mer) [VLS peptide],binds
8,SLAETAGLI (synthetic 9-mer) [SLAE peptide],binds
9,YASRDTYKL (synthetic 9-mer) [YAS peptide],binds
10,VLEEEVELV (synthetic 9-mer) [VLE peptide],binds
